For experiment [1], the target named is cynomolgus monkey PCSK9, V5-6xHIS tagged (cynomolgus monkey). The experiment in a line: SPR (Biacore 2000), antibody amine-coupled on CM5 chip, PCSK9 injected, pH 7.4. (SPR reads the build-up and loss of mass on a sensor chip optically.)
Experiment [2] shares this target. The experiment in a line: Biacore solution equilibrium assay: PCSK9 mixed with 21B12.1, free PCSK9 read on immobilised 21B12.
Experiment [3] shares this target. The experiment in a line: KinExA solution equilibrium, PCSK9-coated beads; cyno PCSK9. In general terms: Kinetic exclusion samples the free partner from a solution-phase mixture.

Here are results for 2 molecules from patent publication US20130064825A1.

B1: 21B12, anti-PCSK9 huIgG4 (antibody, V domains shown)
VH: QVQLVQSGAEVKKPGASVKVSCKASGYTLTSYGISWVRQAPGQGLEWMGWVSFYNGNTNYAQKLQGRGTMTTDPSTSTAYMELRSLRSDDTAVYYCARGYGMDVWGQGTTVTVSS
VL: QSALTQPASVSGSPGQSITISCTGTSSDVGGYNSVSWYQQHPGKAPKLMIYEVSNRPSGVSNRFSGSKSGNTASLTISGLQAEDEADYYCNSYTSTSMVFGGGTKLTVLQ
On to B1, for which the figures for the Kd in experiment [1] and in experiment [2] were 360 pM and 11 pM, respectively.

B2: 16F12, anti-PCSK9 huIgG4 (antibody, V domains shown)
VH: QVHLVESGGGVVQPGRSLRLSCAASGFTFNSFGMHWVRQAPGKGLEWVALIWSDGSDEYYADSVKGRFTISRDNSKNTLYLQMNSLRAEDTAVYYCARAIAALYYYYGMDVWGQGTTVTVSS
VL: QSVLTQPPSVSAAPGQKVTISCSGSSSNIGNNFVSWYQQLPGTAPKLLIYDYNKRPSGIPDRFSGSKSGTSATLGITGLQTGDEADYYCGTWDSSLSAYVFGTGTRVTVLQ
Consider B2, for which the Kd – broadly, the concentration at which binding is half-saturated – in experiment [1] came to 870 pM; in experiment [3], 16 pM.
